Assay results as given in patent publication EP4740967A1 (Shanghai Escugen Biotechnology Co., Ltd., dated 2026).

How the values were obtained:
Assay in all cases: cell-based or functional assay
human Claudin18.2 [1] = molecular target: T1, human Claudin18.2 (human, UniProt P56856 1-261)
T1 sequence (looked up): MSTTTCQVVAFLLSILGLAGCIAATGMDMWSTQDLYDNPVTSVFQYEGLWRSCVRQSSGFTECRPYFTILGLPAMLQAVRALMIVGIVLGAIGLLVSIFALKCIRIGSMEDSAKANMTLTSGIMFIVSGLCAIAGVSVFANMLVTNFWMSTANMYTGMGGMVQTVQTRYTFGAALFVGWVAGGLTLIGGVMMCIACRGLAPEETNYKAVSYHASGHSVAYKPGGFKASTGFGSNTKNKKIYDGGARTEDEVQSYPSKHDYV

human Claudin18.2 [2] = molecular target: T1, human Claudin18.2; remark: listed apart in the source
human Claudin18.2 [3] = molecular target: T1, human Claudin18.2; remark: listed apart in the source
human Claudin18.2 [4] = molecular target: T1, human Claudin18.2; remark: listed apart in the source

Binder | IC50 of in vitro cell killing on MC38-hClaudin18.2 cells (AlamarBlue cell viability) (human Claudin18.2 [1]) [nM] | IC50 of in vitro cell killing on NUGC4-hClaudin18.2 cells (CCK-8 cell viability, 120 h) (human Claudin18.2 [2]) [nM] | IC50 of inhibition of proliferation of MC38-hClaudin18.2 cells (AlamarBlue cell viability, 72 h) (human Claudin18.2 [3]) [nM] | IC50 of in vitro cell killing on HEK293-hClaudin18.2 cells (AlamarBlue cell viability, 72 h) (human Claudin18.2 [4]) [nM]
9D1-GGFG-Exatecan (antibody, human IgG1, kappa, V domains shown, MC-GGFG-Exatecan linker-drug on reduced interchain cysteines (Conjugation Method 1, DAR 8)) VH: QIQLVQSGAEVKKPGASVKISCKASGYSFTDYHMNWVRQAPGKGLEWIGNIDPYYGSPTYNHKFKGRVTLTVDTSTSTAYMELSSLRSEDTAVYYCANYGRGNSFPYWGQGTLVTVSS VL: DIVMTQSPSSLAVSLGERATINCKSSQSLLNSGNQRNYLTWYQQKPGQPPKLLIYWASTRESGVPDRFSGSGSGTDFTLTISSLQAEDVAVYYCQNDYSFPFTFGQGTKLEIKR | 11 | 0.184 | – | –
9D1-LD-74 (antibody, human IgG1, kappa, V domains shown, LD-74 linker-drug (Exatecan, polysarcosine side chain) on reduced interchain cysteines (Conjugation Method 1, DAR 8)) VH: QIQLVQSGAEVKKPGASVKISCKASGYSFTDYHMNWVRQAPGKGLEWIGNIDPYYGSPTYNHKFKGRVTLTVDTSTSTAYMELSSLRSEDTAVYYCANYGRGNSFPYWGQGTLVTVSS VL: DIVMTQSPSSLAVSLGERATINCKSSQSLLNSGNQRNYLTWYQQKPGQPPKLLIYWASTRESGVPDRFSGSGSGTDFTLTISSLQAEDVAVYYCQNDYSFPFTFGQGTKLEIKR | 2.22 | 1.16 | – | –
9D1-LD-89 (antibody, human IgG1, kappa, V domains shown, LD-89 linker-drug (Exatecan) on reduced interchain cysteines (Conjugation Method 1; DAR printed as 1 in Table 1)) VH: QIQLVQSGAEVKKPGASVKISCKASGYSFTDYHMNWVRQAPGKGLEWIGNIDPYYGSPTYNHKFKGRVTLTVDTSTSTAYMELSSLRSEDTAVYYCANYGRGNSFPYWGQGTLVTVSS VL: DIVMTQSPSSLAVSLGERATINCKSSQSLLNSGNQRNYLTWYQQKPGQPPKLLIYWASTRESGVPDRFSGSGSGTDFTLTISSLQAEDVAVYYCQNDYSFPFTFGQGTKLEIKR | – | – | 0.757 | –
9D1-LD-72 (antibody, human IgG1, kappa, V domains shown, LD-72 linker-drug (Exatecan) on reduced interchain cysteines (Conjugation Method 1, DAR 8)) VH: QIQLVQSGAEVKKPGASVKISCKASGYSFTDYHMNWVRQAPGKGLEWIGNIDPYYGSPTYNHKFKGRVTLTVDTSTSTAYMELSSLRSEDTAVYYCANYGRGNSFPYWGQGTLVTVSS VL: DIVMTQSPSSLAVSLGERATINCKSSQSLLNSGNQRNYLTWYQQKPGQPPKLLIYWASTRESGVPDRFSGSGSGTDFTLTISSLQAEDVAVYYCQNDYSFPFTFGQGTKLEIKR | 1.08 | 0.553 | – | –
9D1-LD-12 (antibody, human IgG1, kappa, V domains shown, LD-12 linker-drug (Exatecan) on reduced interchain cysteines (Conjugation Method 1, DAR 8)) VH: QIQLVQSGAEVKKPGASVKISCKASGYSFTDYHMNWVRQAPGKGLEWIGNIDPYYGSPTYNHKFKGRVTLTVDTSTSTAYMELSSLRSEDTAVYYCANYGRGNSFPYWGQGTLVTVSS VL: DIVMTQSPSSLAVSLGERATINCKSSQSLLNSGNQRNYLTWYQQKPGQPPKLLIYWASTRESGVPDRFSGSGSGTDFTLTISSLQAEDVAVYYCQNDYSFPFTFGQGTKLEIKR | 0.799 | 0.58 | – | –
9D1-LD-37 (antibody, human IgG1, kappa, V domains shown, LD-37 linker-drug (Exatecan) on reduced interchain cysteines (Conjugation Method 1, DAR 8)) VH: QIQLVQSGAEVKKPGASVKISCKASGYSFTDYHMNWVRQAPGKGLEWIGNIDPYYGSPTYNHKFKGRVTLTVDTSTSTAYMELSSLRSEDTAVYYCANYGRGNSFPYWGQGTLVTVSS VL: DIVMTQSPSSLAVSLGERATINCKSSQSLLNSGNQRNYLTWYQQKPGQPPKLLIYWASTRESGVPDRFSGSGSGTDFTLTISSLQAEDVAVYYCQNDYSFPFTFGQGTKLEIKR | 0.802 | – | – | –
9D1-LD-88 (antibody, human IgG1, kappa, V domains shown, LD-88 linker-drug (Exatecan) on reduced interchain cysteines (Conjugation Method 1; DAR printed as 1 in Table 1)) VH: QIQLVQSGAEVKKPGASVKISCKASGYSFTDYHMNWVRQAPGKGLEWIGNIDPYYGSPTYNHKFKGRVTLTVDTSTSTAYMELSSLRSEDTAVYYCANYGRGNSFPYWGQGTLVTVSS VL: DIVMTQSPSSLAVSLGERATINCKSSQSLLNSGNQRNYLTWYQQKPGQPPKLLIYWASTRESGVPDRFSGSGSGTDFTLTISSLQAEDVAVYYCQNDYSFPFTFGQGTKLEIKR | – | – | 1.46 | –
9D1-LD-31-P2 (antibody, human IgG1, kappa, V domains shown, LD-31-P2 linker-drug (Exatecan) on reduced interchain cysteines (Conjugation Method 1, DAR 8)) VH: QIQLVQSGAEVKKPGASVKISCKASGYSFTDYHMNWVRQAPGKGLEWIGNIDPYYGSPTYNHKFKGRVTLTVDTSTSTAYMELSSLRSEDTAVYYCANYGRGNSFPYWGQGTLVTVSS VL: DIVMTQSPSSLAVSLGERATINCKSSQSLLNSGNQRNYLTWYQQKPGQPPKLLIYWASTRESGVPDRFSGSGSGTDFTLTISSLQAEDVAVYYCQNDYSFPFTFGQGTKLEIKR | 2.91 | – | – | –
9D1-vc-PAB-MMAE (antibody, human IgG1, kappa, V domains shown, MC-VC-PAB-MMAE linker-drug on partially reduced interchain cysteines (Conjugation Method 2, DAR 4)) VH: QIQLVQSGAEVKKPGASVKISCKASGYSFTDYHMNWVRQAPGKGLEWIGNIDPYYGSPTYNHKFKGRVTLTVDTSTSTAYMELSSLRSEDTAVYYCANYGRGNSFPYWGQGTLVTVSS VL: DIVMTQSPSSLAVSLGERATINCKSSQSLLNSGNQRNYLTWYQQKPGQPPKLLIYWASTRESGVPDRFSGSGSGTDFTLTISSLQAEDVAVYYCQNDYSFPFTFGQGTKLEIKR | 0.407 | 0.064 | – | –
9D1-LD-73 (antibody, human IgG1, kappa, V domains shown, LD-73 linker-drug (Exatecan, PEG side chain) on reduced interchain cysteines (Conjugation Method 1, DAR 8)) VH: QIQLVQSGAEVKKPGASVKISCKASGYSFTDYHMNWVRQAPGKGLEWIGNIDPYYGSPTYNHKFKGRVTLTVDTSTSTAYMELSSLRSEDTAVYYCANYGRGNSFPYWGQGTLVTVSS VL: DIVMTQSPSSLAVSLGERATINCKSSQSLLNSGNQRNYLTWYQQKPGQPPKLLIYWASTRESGVPDRFSGSGSGTDFTLTISSLQAEDVAVYYCQNDYSFPFTFGQGTKLEIKR | 1.4 | 1.27 | – | –
9D1-LD-71 (antibody, human IgG1, kappa, V domains shown, LD-71 linker-drug (SN38) on reduced interchain cysteines (Conjugation Method 1, DAR 8)) VH: QIQLVQSGAEVKKPGASVKISCKASGYSFTDYHMNWVRQAPGKGLEWIGNIDPYYGSPTYNHKFKGRVTLTVDTSTSTAYMELSSLRSEDTAVYYCANYGRGNSFPYWGQGTLVTVSS VL: DIVMTQSPSSLAVSLGERATINCKSSQSLLNSGNQRNYLTWYQQKPGQPPKLLIYWASTRESGVPDRFSGSGSGTDFTLTISSLQAEDVAVYYCQNDYSFPFTFGQGTKLEIKR | – | – | – | 0.397
9D1-ELC122 (antibody, human IgG1, kappa, V domains shown, ELC122 linker-drug (SN38) on reduced interchain cysteines (Conjugation Method 1, DAR 8)) VH: QIQLVQSGAEVKKPGASVKISCKASGYSFTDYHMNWVRQAPGKGLEWIGNIDPYYGSPTYNHKFKGRVTLTVDTSTSTAYMELSSLRSEDTAVYYCANYGRGNSFPYWGQGTLVTVSS VL: DIVMTQSPSSLAVSLGERATINCKSSQSLLNSGNQRNYLTWYQQKPGQPPKLLIYWASTRESGVPDRFSGSGSGTDFTLTISSLQAEDVAVYYCQNDYSFPFTFGQGTKLEIKR | – | – | – | 0.628
9D1-LD-66 (antibody, human IgG1, kappa, V domains shown, LD-66 linker-drug (Exatecan) on reduced interchain cysteines (Conjugation Method 1, DAR 8)) VH: QIQLVQSGAEVKKPGASVKISCKASGYSFTDYHMNWVRQAPGKGLEWIGNIDPYYGSPTYNHKFKGRVTLTVDTSTSTAYMELSSLRSEDTAVYYCANYGRGNSFPYWGQGTLVTVSS VL: DIVMTQSPSSLAVSLGERATINCKSSQSLLNSGNQRNYLTWYQQKPGQPPKLLIYWASTRESGVPDRFSGSGSGTDFTLTISSLQAEDVAVYYCQNDYSFPFTFGQGTKLEIKR | 1.09 | 0.996 | – | 0.996
9D1-LD-82 (antibody, human IgG1, kappa, V domains shown, LD-82 linker-drug (structure, preparation and DAR not described in the filing)) VH: QIQLVQSGAEVKKPGASVKISCKASGYSFTDYHMNWVRQAPGKGLEWIGNIDPYYGSPTYNHKFKGRVTLTVDTSTSTAYMELSSLRSEDTAVYYCANYGRGNSFPYWGQGTLVTVSS VL: DIVMTQSPSSLAVSLGERATINCKSSQSLLNSGNQRNYLTWYQQKPGQPPKLLIYWASTRESGVPDRFSGSGSGTDFTLTISSLQAEDVAVYYCQNDYSFPFTFGQGTKLEIKR | – | – | 8.01 | –
9D1-LD-65 (antibody, human IgG1, kappa, V domains shown, LD-65 linker-drug (Exatecan) on reduced interchain cysteines (Conjugation Method 1, DAR 8)) VH: QIQLVQSGAEVKKPGASVKISCKASGYSFTDYHMNWVRQAPGKGLEWIGNIDPYYGSPTYNHKFKGRVTLTVDTSTSTAYMELSSLRSEDTAVYYCANYGRGNSFPYWGQGTLVTVSS VL: DIVMTQSPSSLAVSLGERATINCKSSQSLLNSGNQRNYLTWYQQKPGQPPKLLIYWASTRESGVPDRFSGSGSGTDFTLTISSLQAEDVAVYYCQNDYSFPFTFGQGTKLEIKR | 1.61 | 0.701 | – | 0.086
9D1-LD-57 (antibody, human IgG1, kappa, V domains shown, LD-57 linker-drug (MMAE) on partially reduced interchain cysteines (Conjugation Method 2, DAR 4)) VH: QIQLVQSGAEVKKPGASVKISCKASGYSFTDYHMNWVRQAPGKGLEWIGNIDPYYGSPTYNHKFKGRVTLTVDTSTSTAYMELSSLRSEDTAVYYCANYGRGNSFPYWGQGTLVTVSS VL: DIVMTQSPSSLAVSLGERATINCKSSQSLLNSGNQRNYLTWYQQKPGQPPKLLIYWASTRESGVPDRFSGSGSGTDFTLTISSLQAEDVAVYYCQNDYSFPFTFGQGTKLEIKR | 0.53 | 0.053 | – | –
9D1-LD-31-P1 (antibody, human IgG1, kappa, V domains shown, LD-31-P1 linker-drug (Exatecan) on reduced interchain cysteines (Conjugation Method 1, DAR 8)) VH: QIQLVQSGAEVKKPGASVKISCKASGYSFTDYHMNWVRQAPGKGLEWIGNIDPYYGSPTYNHKFKGRVTLTVDTSTSTAYMELSSLRSEDTAVYYCANYGRGNSFPYWGQGTLVTVSS VL: DIVMTQSPSSLAVSLGERATINCKSSQSLLNSGNQRNYLTWYQQKPGQPPKLLIYWASTRESGVPDRFSGSGSGTDFTLTISSLQAEDVAVYYCQNDYSFPFTFGQGTKLEIKR | 4.35 | – | – | –
